From article PMC10020445, “Mechanism underlying delayed rectifying in human voltage-mediated activation Eag2 channel” (Nature Communications, 2023) come the findings set out here.

The data set concerns the molecule itself. Description: cryo-EM structure; purified hEag2 in 20 mM Tris-HCl pH 8.0, 150 mM KCl, 1 mM MgCl2, 0.03% digitonin, about 5 mg/ml; six maps (closed 1, closed 2, pre-open 1, pre-open 2, open, pore dilation but non-conducting) refined with C4 symmetry imposed.

B1: human Eag2 (hEag2) voltage-gated potassium channel (natural protein, UniProt Q8NCM2 1-988, looked up)
chain: MPGGKRGLVAPQNTFLENIVRRSSESSFLLGNAQIVDWPVVYSNDGFCKLSGYHRADVMQKSSTCSFMYGELTDKKTIEKVRQTFDNYESNCFEVLLYKKNRTPVWFYMQIAPIRNEHEKVVLFLCTFKDITLFKQPIEDDSTKGWTKFARLTRALTNSRSVLQQLTPMNKTEVVHKHSRLAEVLQLGSDILPQYKQEAPKTPPHIILHYCAFKTTWDWVILILTFYTAIMVPYNVSFKTKQNNIAWLVLDSVVDVIFLVDIVLNFHTTFVGPGGEVISDPKLIRMNYLKTWFVIDLLSCLPYDIINAFENVDEGISSLFSSLKVVRLLRLGRVARKLDHYLEYGAAVLVLLVCVFGLVAHWLACIWYSIGDYEVIDEVTNTIQIDSWLYQLALSIGTPYRYNTSAGIWEGGPSKDSLYVSSLYFTMTSLTTIGFGNIAPTTDVEKMFSVAMMMVGSLLYATIFGNVTTIFQQMYANTNRYHEMLNNVRDFLKLYQVPKGLSERVMDYIVSTWSMSKGIDTEKVLSICPKDMRADICVHLNRKVFNEHPAFRLASDGCLRALAVEFQTIHCAPGDLIYHAGESVDALCFVVSGSLEVIQDDEVVAILGKGDVFGDIFWKETTLAHACANVRALTYCDLHIIKREALLKVLDFYTAFANSFSRNLTLTCNLRKRIIFRKISDVKKEEEERLRQKNEVTLSIPVDHPVRKLFQKFKQQKELRNQGSTQGDPERNQLQVESRSLQNGASITGTSVVTVSQITPIQTSLAYVKTSESLKQNNRDAMELKPNGGADQKCLKVNSPIRMKNGNGKGWLRLKNNMGAHEEKKEDWNNVTKAESMGLLSEDPKSSDSENSVTKNPLRKTDSCDSGITKSDLRLDKAGEARSPLEHSPIQADAKHPFYPIPEQALQTTLQEVKHELKEDIQLLSCRMTALEKQVAEILKILSEKSVPQASSPKSQMPLQVPPQIPCQDIFSVSRPESPESDKDEIHF
notes: human Eag2 potassium channel (hEag2), UniProtKB Q8NCM2; gene placed before a PreScission protease site, followed by C-terminal EGFP and FLAG; the C-terminal GFP tag was removed with HRV 3C protease; the methods describe only one construct; FLAG stands after EGFP behind the protease site, so it leaves with the GFP tag; Residues with poor side-chain density were modelled as alanines in the …
In general, stoichiometry N refers to a count of units in the complex or per binding partner. As for B1, the “stoichiometry N” value came to 4.
